This is an account of results in patent CN114989295A.

This experiment has as its target 重组MERS-CoV-S蛋白 (MERS-CoV) (UniProt K9N5Q8). As to the kind of experiment: indirect ELISA, hybridoma supernatant on coated MERS-S protein.
UniProt K9N5Q8, sequence (K9N5Q8 324-644 limits assumed): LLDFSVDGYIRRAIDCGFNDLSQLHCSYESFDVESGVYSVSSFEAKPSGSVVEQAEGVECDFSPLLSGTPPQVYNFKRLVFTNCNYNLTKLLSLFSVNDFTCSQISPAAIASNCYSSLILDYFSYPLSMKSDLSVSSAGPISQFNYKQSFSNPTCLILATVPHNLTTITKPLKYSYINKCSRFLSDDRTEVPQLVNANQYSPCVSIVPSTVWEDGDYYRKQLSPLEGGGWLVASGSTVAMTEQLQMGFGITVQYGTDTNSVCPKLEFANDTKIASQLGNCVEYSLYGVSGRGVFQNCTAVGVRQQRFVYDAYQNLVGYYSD

B1: 抗MERS-CoV鼠单克隆抗体6E4 (antibody, V domains shown)
VH: EVDLSESLGGQVKVTGSLKLDEAASGSMHGGDVKEGASLWLWVRVTPEIELEWRDAQGVAFISAGESSTYRFTTSRDNARSDRYLQMSELRKLDTAFIYCGRYRVTLSTLQEYSWGQGDWVTTDA
VL: DIQETQTRSVLSAALGSRVTISCSMDIANYVNEYQWYQSPKPDFDVKLSIYEVLIYRSVRLQSGVPSRFSKKGSLDDYSLTISCFEPEDVEIYCNDCQILGSELPEFGDFTKIEILR
Molecule B1 showed a 效价 (titer (1:dilution)) of 256000 and a 敏感性 of 2.31 ng/mL.

B2: 抗MERS-CoV鼠单克隆抗体7G5 (antibody, V domains shown)
VH: EVQGQVSGLKLVVEGASVLKSCTSTGFLSGMGLVMPGGSNHSWVQEVPEIVLEWSGDWSANYSQDGLITSKATASADTTDSTAYLQLSEFDSEDTAVSFSCASNWLMLYMASLNWGQGEDDTVQS
VL: DISLTRSPSTLSATPQESVSLSCKQLISSYLMWTQWYQSKSHESLELTEKVELIYSNSHLHTGIPFSFSGDDSGTDFFLKVNVNSTEDFGEYFCSCQDQNTSERGDFGQATKLLEK
For the molecule B2, the 效价 (titer (1:dilution)) was determined as 256000 and the 敏感性 amounted to 0.561 ng/mL.
